Assay results taken from paper PMC2132493.

Target: mXRN1p (Mus musculus (mouse; testis BALB/c and …, UniProt P97789 1-1719)
Assay: EMSA

Sequence of mXRN1p (Mus musculus (P97789 whole entry): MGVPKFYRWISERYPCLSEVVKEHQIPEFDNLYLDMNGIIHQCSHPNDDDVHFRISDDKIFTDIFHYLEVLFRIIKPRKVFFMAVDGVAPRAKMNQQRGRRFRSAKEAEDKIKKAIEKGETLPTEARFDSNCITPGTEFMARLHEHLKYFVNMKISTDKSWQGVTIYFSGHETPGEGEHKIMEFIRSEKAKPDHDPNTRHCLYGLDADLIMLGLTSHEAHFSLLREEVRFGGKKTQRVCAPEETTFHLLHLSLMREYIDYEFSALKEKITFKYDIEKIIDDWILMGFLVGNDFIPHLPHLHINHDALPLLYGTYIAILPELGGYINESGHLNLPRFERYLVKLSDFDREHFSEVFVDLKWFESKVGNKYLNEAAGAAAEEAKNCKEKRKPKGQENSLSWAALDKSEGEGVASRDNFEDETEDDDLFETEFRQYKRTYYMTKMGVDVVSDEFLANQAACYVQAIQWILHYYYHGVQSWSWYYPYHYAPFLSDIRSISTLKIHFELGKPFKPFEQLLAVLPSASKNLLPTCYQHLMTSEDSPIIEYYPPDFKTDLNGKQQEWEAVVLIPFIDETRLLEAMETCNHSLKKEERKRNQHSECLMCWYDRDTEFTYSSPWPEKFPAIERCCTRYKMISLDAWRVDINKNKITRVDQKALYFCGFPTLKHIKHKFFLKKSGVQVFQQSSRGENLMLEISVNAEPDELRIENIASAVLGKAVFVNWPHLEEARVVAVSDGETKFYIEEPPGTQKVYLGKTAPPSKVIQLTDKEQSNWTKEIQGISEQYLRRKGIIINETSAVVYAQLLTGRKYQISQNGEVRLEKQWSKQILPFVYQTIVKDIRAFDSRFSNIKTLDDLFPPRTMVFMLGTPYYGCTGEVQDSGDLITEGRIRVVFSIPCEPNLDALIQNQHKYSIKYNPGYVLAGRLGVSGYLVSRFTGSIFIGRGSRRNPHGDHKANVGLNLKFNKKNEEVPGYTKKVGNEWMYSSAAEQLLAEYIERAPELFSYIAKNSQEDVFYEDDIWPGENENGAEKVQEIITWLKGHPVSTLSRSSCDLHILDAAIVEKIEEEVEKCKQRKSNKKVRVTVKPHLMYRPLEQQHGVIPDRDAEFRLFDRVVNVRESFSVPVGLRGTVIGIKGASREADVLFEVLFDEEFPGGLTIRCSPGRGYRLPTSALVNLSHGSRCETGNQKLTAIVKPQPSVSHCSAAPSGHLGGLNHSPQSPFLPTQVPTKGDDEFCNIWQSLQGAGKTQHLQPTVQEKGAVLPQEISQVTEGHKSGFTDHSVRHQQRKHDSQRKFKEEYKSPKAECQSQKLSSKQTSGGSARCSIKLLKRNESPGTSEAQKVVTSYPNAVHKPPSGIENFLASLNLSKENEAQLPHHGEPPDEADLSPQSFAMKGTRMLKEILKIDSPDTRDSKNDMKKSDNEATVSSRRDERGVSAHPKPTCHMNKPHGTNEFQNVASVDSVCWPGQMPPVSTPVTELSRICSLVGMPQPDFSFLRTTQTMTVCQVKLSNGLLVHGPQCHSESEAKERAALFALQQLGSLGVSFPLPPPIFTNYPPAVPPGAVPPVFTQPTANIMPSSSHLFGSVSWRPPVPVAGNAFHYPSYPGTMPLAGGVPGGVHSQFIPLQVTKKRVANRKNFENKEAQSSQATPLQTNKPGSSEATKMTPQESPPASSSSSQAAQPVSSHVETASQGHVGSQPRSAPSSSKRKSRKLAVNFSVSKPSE

B1: GL[G4] (structured_DNA)
DNA: TATGGGGGAGCTGGGGAAGGTGGGATTT
- Ka: 1.26e+10 M⁻¹

B2: rGL[G4] (structured_RNA)
RNA: UAUGGGGGAGCUGGGGAAGGUGGGAUUU
- Ka: 2.95e+10 M⁻¹
